Test system: K4 kissing-loop RNA reporter
Experiment: apparent KD of K4 kissing-loop reporter; higher = weaker reporter binding
Settings: Eterna round: R107
Experimental: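 RNA-MaP round R107: designed RNA switches with theophylline, tryptophan, arginine or FMN aptamers are transcribed on-chip within common flanks. They are titrated with a labelled K4 kissing-loop RNA reporter in RNA-MaP buffer (100 mM Tris pH 7.5, 80 mM KCl, 4 mM MgCl2), without ligand or with the indicated ligand. Median apparent KD per design.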

[1] = input ligand: theophylline 20 uM
[2] = input ligand: tryptophan 2.4 mM
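Further: bound reporter read as fluorescence of individual clusters on recovered sequencing chips by microscopy, with normalized cluster intensities fitted with a binding model.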

| Sequence | apparent KD of K4 kissing-loop reporter (input ligand: FMN 200 uM) [nM] | apparent KD of K4 kissing-loop reporter (input ligand: arginine 13.2 mM) [nM] | apparent KD of K4 kissing-loop reporter (input ligand: none) [nM] | apparent KD of K4 kissing-loop reporter [1] [nM] | apparent KD of K4 kissing-loop reporter [2] [nM] |
| --- | --- | --- | --- | --- | --- |
| UGAUAGGACAGAAGGAGCGGAAGUGAUGUUUCCAAAAGAUAUGAUCGACAAAGUCGAUUUUUCCAGGUAGGUCGCUGUCCUAUCU [KL-XARG-B19] | 60.5 | 84.9 | 66.8 | 100 | 66.6 |
| UGUCUUUUUUUGAUGUUUUUUGUAUAAUGGCAGGAUAUCGUAGAUGCGAGAAGGGCUUUUAUGCGUUAUGAGUGAUGUUUGUAGG [vjjbvmullin] | 329 | 260 | 297 | 332 | 225 |
| GUAGAUAGGCUACAUCUCUAGUCUAAACACUAGGAUAUCAGGAAACUGAGAAGGAGUGUCAUUGGAGUGAUGUUCCAAGAAUAAU [KL-SSFMN-A17] | 166 | 195 | 185 | 225 | 167 |
| UGGAGUUGACGAAAAGUCAACUCCUGAGAAGGAGCGGACGAAAGUCCAGGUAGGUCGCUCACUACCAGUGAUGUUGGUACUUGAA | 276 | 293 | 259 | 428 | 185 |
| GGAUCCACCAGUGAUGUUGGAAAAUACUCCAAGGAUAUGACGAAAGUCAGAAGGUGGUAGACUGGACAAAGUCCAGUCGGAUCCA [FmnA 27 #SwitchBubble #K4Early] | 531 | 205 | 527 | 537 | 504 |
| GGUAGCAUGGCGGCCGCCACUGAGGCCCUAUGCGAGUCCUCUACAACCUAGUGAUGUUAGGCGUCCAGGACCGGGCCAUGCUACC | 95.7 | 44.1 | 71.2 | 58.4 | 93 |
| CGCCAGUGAUGUUGGUGCAGCUACCGGGAAGGAGCGCCCAUAAGGGCAGGUAGGUCGCCCGGGCAGUGAUGUUGCCUCAUGCCGC [Exclusion Arginine A GF 22] | 243 | 236 | 273 | 234 | 238 |
| GCACUACAAUAAGGAUAUCAUAAAAUGGAGAGCGAGUGAUGUUCGCAGAGACACCUAUUUUUCCUAUGAGAAGGUAUUAACGCCG [theeternabot_sameState_KL_FMN_B_40] | 97.8 | 99 | 120 | 161 | 93.2 |
| AAAUUUAUAUUAGAUACCAGUUUAUUGGAUGUAAAUUAUGACAUGAGUGAUGUUCAUGUAAGCCCUUGGCAGCUGGUAUGGGUUU [KL-XTheo-B22] | 132 | 119 | 127 | 124 | 114 |
| CAAAUAAAUAUAAUUGAUAAGUGAUGUUGGCGAGGACCGGUACGGCCGCCACUCGAUAUCGGUCCAUUAACCGAGUGAUGUUUGG [Default title] | 102 | 58.9 | 81.1 | 67.4 | 83.7 |
| AGCGCUGCCUGAGGAUAUAGAAACGAGUGAUGUUCGUGGAUUGAUACCAGUGAUGUUGGCCUAUUUCUAGAAGGCAGGCGAUCGU [Exclusion FMN B GF2] | 172 | 97.1 | 136 | 88.2 | 114 |
| GGAUGCAUUUUGGAUACCAGUCUAGUGAUGUUAGACUGAUAAUAACGGGCAGCGUUGGCAGACCCUUGGCAGCCAAAAUACUUAA [theeternabot_exclusion_KL_Theo_B_33] | 62.2 | 64.6 | 54.8 | 63.9 | 58.9 |
| GCAAGGCUACAAGGAUAUGCGCGAACCUACCGCCAAGCGGCUACCGGUGAGUCAGUGAUGUUGGCUGCAGAAGGUGUGAUUGAGC [theeternabot_sameState_KL_FMN_B_45] | 383 | 301 | 365 | 380 | 334 |
| ACGUCCGGGUUAAUCGUGGGCGUGGUGGAUACCAGUUCUUCAAUGAACCCUUGGCAGCCACGUGAGUGAUGUUCACGUGCGAUGA [#15 K4 Theophylline A Exclusion] | 98.7 | 83.3 | 89.5 | 88.7 | 88.6 |
| GGUGCUGUCUGUGCCGCCCUCCUCGUCCCUCGAGGACCGGUACGGCCGCCACUCGAGUGAUGUUCGGGUAGCCAUCCCUGCUAGC [Bdazzled - #19 Exc. Tryptophan A] | 647 | 666 | 680 | 590 | 937 |
| AAGCAGUCACCCGAAGCCAUCGAAGAUGGACGAGGACCGGUACGGCCGCCACUCGGAGUGAUGUUCCGAAGACUGCAAAAUAAAA | 269 | 272 | 302 | 304 | 412 |
| AAACAUCACUGGGAGUGAUGUUCUCAGUGACGAGGACCGGUACGGCCGCCACUCGCGAGAGAUUUAGUCUAGUCUUGACUGCAUU [Excl Tryptophan A V12] | 299 | 303 | 264 | 372 | 331 |
| GGAUAGGACUGAGGAUAUGGGCUAGGCAAGAAUAACUUGUCUAGCAAAUCCAUGAGGAGUGAUGUUCCAGAAGGCAGUCCUAUCG [FmnBX 1 U10+A76] | 732 | 135 | 170 | 167 | 113 |
